The source of these data is patent publication US20170166649A1 (MAX DELBR CK CENTRUM F R MOLEKULARE MEDIZIN IN DER …, published 2017).

Broadly, the Kd is the concentration at which binding is half-saturated. Broadly, the EC50 (read off the curve) is the concentration at which the effect is half-maximal.

In assay [1] the target is T1, human CD269 (BCMA) on human multiple myeloma cells (MM.1S, RPMI-8226) (human, UniProt Q02223 1-184).
T1 construct: whole, on cells; also called BCMA-positive MM.1S cells; CD269-positive MM.1S cells
T1 sequence (looked up): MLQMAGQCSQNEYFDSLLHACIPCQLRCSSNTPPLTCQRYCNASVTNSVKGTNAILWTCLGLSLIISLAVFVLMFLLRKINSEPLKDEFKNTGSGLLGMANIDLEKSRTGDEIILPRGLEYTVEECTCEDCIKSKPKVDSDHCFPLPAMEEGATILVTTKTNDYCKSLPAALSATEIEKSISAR
Put plainly: flow cytometry on MM.1S cells. For orientation: A flow cytometer gives signals particle by particle.

The target of assay [2] is T2, extracellular domain of human CD269 (BCMA, TNFRSF17) (human, UniProt Q02223 4-54).
T2 construct: also called hBCMA; human BCMA
T2 sequence: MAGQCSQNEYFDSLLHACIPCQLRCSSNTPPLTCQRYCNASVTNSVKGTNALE
Put plainly: ELISA of hybridoma J22.9 supernatant on BCMA-coated microtiter plates at the given days of culture.

For assay [3], the target named is T2, extracellular domain of human CD269 …. Put plainly: complex isolated by size exclusion chromatography and crystallised. The method, then: (Fab)₂ fragments were generated from full length J22.9-xi IgG by incubation with pepsin. J22.9-xi was passed over a PD-10 buffer exchange column into 50 mM sodium acetate, pH 3.5 and pepsin added at 30 μg per milligram J22.9-xi. Incubation at 37° C. for 2.5 hours was sufficient to completely digest the fragment crystallizable (Fc) region and pepsin was inactivated by exchange over a PD-10 column into PBS (pH 7.2). The reduction of the (Fab)₂ fragments to individual Fabs was accomplished in PBS by addition of 2-Mercaptoethylamine (50 mM) in the presence of 5 mM ethylenediaminetetraacetic acid (EDTA). After incubation for 90 minutes at 37° C., the reduced cysteines were blocked by alkylation with 500 μM iodoacetamide for 30 minutes followed by buffer exchange into fresh PBS. The Fab fragments were combined with 1.5 molar equivalents of purified BCMA and the complexes isolated by size exclusion chromatography on a Superdex 75 16/60 column.
Concentrated complexes were supplemented with 0.5 molar equivalents of pure BCMA to ensure saturation and were subjected to crystallization screening. Initial Fab:BCMA crystallization conditions were identified from commercial screens (Qiagen) in 96-well sitting drop format plates using a Gryphon pipetting robot (200 nl drops) and optimized in 24 well plates in hanging drops (2-3 ul). […]

Assay [4] shares this target. Briefly: SPR, value printed beside the trace for 1.1 nM BCMA; neither a quantity name nor a unit is printed, and the five values average to the mean Kd of 54 pM of paragraph 196. For orientation: Surface plasmon resonance follows binding to a sensor surface in real time, without labels.
Assay [5] shares this target. Briefly: SPR; mean Kd of FIG. 1c, initial SPR characterisation (not the n = 3 series of Table 6).
For assay [6] the target is unchanged. Briefly: SPR, IgG immobilised, human BCMA in mobile phase (n = 3). The protocol:
(§1) FIG. 12: SPR raw data: Binding affinities of the chimeric J22.9-xi and humanized variants to human (A) and cynomolgus (B) BCMA was measured by Surface Plasmon Resonance (SPR) Spectrometry. IgGs were immobilized via amine chemistry to a Proteon GLH sensor chip and binding measured with BCMA in the mobile phase. The order of raw data traces in the graph corresponds to the order to samples listed in the legend of the figure.
(§2) SPR was performed on a ProteonXPR36 using phosphate buffered saline supplemented with 0.005% Tween-20 (PBST). Whole IgG at a concentration of 15 ug/ml was immobilized to a Proteon GLH sensor chip using standard amine chemistry according to the manufacturer's instructions. For binding experiments, human or cynomolgus BCMA in PBST was used as the mobile phase.

The target is the same in assay [7]. Briefly: ELISA on plates coated with human BCMA (1 ug/ml), % of max. The protocol:
(§3) ELISA was carried out as described herein using BCMA-coated microtiter plates (1 microg/ml).
(§4) Microtiter plates were coated with 1 μg/ml of the extracellular domain of human or cynomolgous BCMA (hBCMA or cyBCMA, respectively). Coated BCMA was detected with serial dilution of J22.9-xi, J22.9-H, J22.9-ISY and J22.9-FSY ranging from 0.26 pM to 500 nM. Binding of antibodies to the coated BCMA was detected with horseradish peroxidase (HRP)-conjugated goat anti-human secondary antibody (Jackson ImmunoResearch, 109-035-098, dilution 1:5,000).
Background: An ELISA detects its analyte on a solid surface through an enzyme-linked reagent.

For assay [8], the target named is T3, extracellular domain of cynomolgous BCMA (cynomolgus, UniProt A0A2K5UD97 1-53).
T3 construct: extracellular domain; also called cyBCMA; cynoBCMA
Briefly: ELISA on plates coated with cynomolgus BCMA (1 ug/ml), % of max. The method, then: as §3, §4

In assay [9] the target is T2, extracellular domain of human CD269 …. Put plainly: SPR, value printed beside the trace for 90.0 nM BCMA; neither a quantity name nor a unit is printed, and the five values average to the mean Kd of 54 pM of paragraph 196.
Assay [10] has the same target. Briefly: SPR, value printed beside the trace for 10.0 nM BCMA; neither a quantity name nor a unit is printed, and the five values average to the mean Kd of 54 pM of paragraph 196.
Assay [11] has the same target. Briefly: SPR, value printed beside the trace for 3.3 nM BCMA; neither a quantity name nor a unit is printed, and the five values average to the mean Kd of 54 pM of paragraph 196.
For assay [12] the target is unchanged. Put plainly: SPR, value printed beside the trace for 30.0 nM BCMA; neither a quantity name nor a unit is printed, and the five values average to the mean Kd of 54 pM of paragraph 196.
The target of assay [13] is T3, extracellular domain of cynomolgous BCMA. Put plainly: SPR, IgG immobilised, cynomolgus BCMA in mobile phase (n = 2). The protocol: as §1, §2

T3 sequence (A0A2K5UD97 entry or part of it): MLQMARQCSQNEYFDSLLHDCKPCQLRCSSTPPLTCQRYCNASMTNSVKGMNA

B1: J22.9-xi-N-glycan (deglycosylated J22.9-xi) (antibody, human IgG1, V domains shown)
VH: QVQLQQSGGGLVQPGGSLKLSCAASGIDFSRYWMSWVRRAPGKGLEWIGEINPDSSTINYAPSLKDKFIISRDNAKNTLYLQMSKVRSEDTALYYCASLYYDYGDAMDYWGQGTSVTVSS
VL: DIVMTQSQRFMTTSVGDRVSVTCKASQSVDSNVAWYQQKPRQSPKALIFSASLRFSGVPARFTGSGSGTDFTLTISNLQSEDLAEYFCQQYNNYPLTFGAGTKLELKR
modifications: N-linked oligosaccharide chains at Asn297 of the heavy chain removed with PNGase F
notes: also called J22.9-xi without N-glycans
On to B1, for which, in assay [1], the binding result is listed as “binds”.

B2: antibody in the supernatant of mouse hybridoma J22.9 (antibody, V domains shown)
VH: B1 VH
VL: B1 VL
notes: Mouse antibody; also called hybridoma J22.9 supernatant
Turning to B2, the binding result in assay [2] is reported as “binds”.

B3: Fab fragment prepared from J22.9-xi (Fab, V domains shown)
VH: B1 VH
VL: B1 VL
modifications: reduced cysteines blocked by alkylation with iodoacetamide
notes: also called J22.9-xi Fab
Turning to B3, the binding result in assay [3] is “binds”.

B4: chimeric antibody J22.9-xi (antibody, V domains shown)
VH: B1 VH
VL: B1 VL
notes: Full length IgG made in 293-6E cells
Consider B4, for which the dissociation constant Kd came to 0.021 nM in [4]; 0.054 nM in [5]; 0.28 nM in assay [6]; 0.088 nM in assay [9]; 0.0555 nM in assay [10]; 0.0362 nM in assay [11]. Besides, the results for the Kd in assay [12] and in assay [13] were 0.0695 nM and 2.7 nM, respectively. Also, the “EC50 (read off the curve)” value in [7] and in assay [8] was approximately 0.2 nM throughout.
